The values below come from paper PMC3899335, “ParABS System in Chromosome Partitioning in the Bacterium Myxococcus xanthus”.

The target of this data set is T1, ParB (Myxococcus xanthus DK1050, UniProt Q1CVJ4 1-296).
T1 sequence: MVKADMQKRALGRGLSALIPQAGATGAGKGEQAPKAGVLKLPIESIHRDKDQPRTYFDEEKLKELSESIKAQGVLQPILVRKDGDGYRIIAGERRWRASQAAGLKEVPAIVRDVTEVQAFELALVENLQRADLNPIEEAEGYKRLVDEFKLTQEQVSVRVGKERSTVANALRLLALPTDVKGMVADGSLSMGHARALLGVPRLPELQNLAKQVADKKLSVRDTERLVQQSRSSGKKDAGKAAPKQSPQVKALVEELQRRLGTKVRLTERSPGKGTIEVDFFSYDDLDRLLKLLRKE
In words: EMSA (polyacrylamide); single retarded band up to highest ParB; 40 mM Na-phosphate pH 8, 20 mM NaCl, 7% glycerol, 20 ug/ml BSA, 100 ug/ml sheared salmon sperm DNA, 30 C (30 min agarose, 1 h polyacrylamide); gels run at 4 C. The following applies: protein: recombinant; tags: intein-chitin tag (pTYB12) removed by on-column DTT cleavage; chain copies: 2; label: 32P 5' end; blunt. On the technique in general: A gel shift assay detects complexes by their altered migration in electrophoresis.

B1: parS 50 bp consensus (dsDNA)
DNA 1: ACTCACTCATGGCCTCCGTGTTCCACGTGGAACGAAGGATGACTCGAGCA
DNA 2: TGCTCGAGTCATCCTTCGTTCCACGTGGAACACGGAGGCCATGAGTGAGT
In the case of B1, the binding result is reported as “binds”.
